Test results as given in patent US20190177416A1 (NANOMAB TECHNOLOGY, published 2019).

Columns and labels:
[1] = molecular target: T1, PD-L1 on 293F cells transiently transfected with the PD-L1 full-length gene (UniProt Q9NZQ7 19-290, limits assumed); experiment: flow cytometry, 293F cells transiently transfected with PD-L1 or PD-L2
T1 construct: whole, on cells; also called PD-L1 transient cells
Procedure: In addition, the specificity of the PD-L1 nanobody was detected by flow cytometry. The PD-L1 full-length gene and the PD-L2 full-length gene were transiently transfected in a conventional 293F cell, and a nano-antibody (SEQ ID NO.: 1) of PD-L1 was selected for incubation for flow cytometry.

[2] = molecular target: T2, human PD-L1 protein (coated antigen) (human, UniProt Q9NZQ7 19-238, limits assumed); experiment: PE-ELISA, crude extract on coated PD-L1
T2 construct: Construct not described; also called PD-L1 antigen; antigenic protein PD-L1
T2 sequence (Q9NZQ7 19-238 limits assumed): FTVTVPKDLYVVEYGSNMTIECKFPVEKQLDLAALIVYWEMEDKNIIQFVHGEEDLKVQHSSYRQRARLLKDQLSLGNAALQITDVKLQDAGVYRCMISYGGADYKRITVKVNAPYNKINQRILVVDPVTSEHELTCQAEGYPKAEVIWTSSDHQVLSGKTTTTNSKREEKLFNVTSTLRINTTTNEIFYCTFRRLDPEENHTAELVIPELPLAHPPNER
How it was run: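 Phage clones were expressed with 1 mmol IPTG at 28° C overnight, and crude periplasmic antibody was applied to PD-L1-coated plates for 1 h at room temperature. Detection used anti-HA, then an alkaline phosphatase conjugate, read at 405 nm. A sample/control OD ratio above 3 marked a positive clone.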

[3] = molecular target: T2, human PD-L1 protein (coated antigen); experiment: ELISA, purified nanobody 10 ug/mL on coated PD-L1, anti-HA detection
Procedure: (§1) (1) Coated antigenic proteins PD-L1 and PD-L2: 0.5 μg per well (5 μg/mL, 100 μL), packaged NaHCO₃ (100 mM, pH8.2) was used as a blank control and overnight at 4° C. (2) Wash the cells three times with PBST the next day, add 200 μL of 1% BSA to block at room temperature for 2 hours. (3) Each purified nanobody was diluted to 10 μg/mL, and 100 pt of each of the purified nanobodies was incubated with the coated PD-L1, PD-L2 and the blank control group, and reacted at room temperature for 1 hour. (4) Unbound antibody was washed away with PBST, and 100 μL of mouse anti-HA tag antibody (1:2000 dilution) was added and placed at room temperature for 1 hour. (5) Unbound antibody was washed away with PBST, and anti-mouse alkaline phosphatase conjugate (1:2000 dilution) was added and placed at room temperature for 1 hour. (6) Wash the unbound antibody with PBST, add alkaline phosphatase coloring solution, and read the absorbance at 405 nm on an ELISA apparatus. The specificity of the nanobody was judged based on the absorption value.

[4] = molecular target: T3, PD-L2 (coated antigenic protein) (UniProt Q9BQ51 20-220, limits assumed); experiment: ELISA, purified nanobody 10 ug/mL on coated PD-L2, anti-HA detection
T3 sequence (looked up): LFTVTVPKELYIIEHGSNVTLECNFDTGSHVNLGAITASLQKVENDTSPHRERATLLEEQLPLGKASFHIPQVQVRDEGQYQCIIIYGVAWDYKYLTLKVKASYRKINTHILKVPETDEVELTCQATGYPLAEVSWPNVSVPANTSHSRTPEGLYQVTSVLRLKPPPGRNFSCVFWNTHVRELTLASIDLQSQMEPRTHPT
Procedure: as §1

[5] = molecular target: T2, human PD-L1 protein (coated antigen); experiment: ELISA, purified nanobody 10 ug/mL, coated PD-L1 against coated PD-L2
Procedure: as §1

[6] = molecular target: T2, human PD-L1 protein (coated antigen); experiment: PE-ELISA on coated PD-L1

T1 sequence (Q9NZQ7 19-290 limits assumed): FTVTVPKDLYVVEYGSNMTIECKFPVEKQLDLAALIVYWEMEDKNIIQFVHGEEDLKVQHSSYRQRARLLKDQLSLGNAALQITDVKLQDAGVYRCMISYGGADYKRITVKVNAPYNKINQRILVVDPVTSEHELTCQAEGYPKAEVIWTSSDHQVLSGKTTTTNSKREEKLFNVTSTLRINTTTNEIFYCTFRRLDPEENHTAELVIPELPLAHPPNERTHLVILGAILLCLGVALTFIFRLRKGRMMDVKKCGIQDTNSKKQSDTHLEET

B1: SEQ ID NO 1 (VHH)
VHH: QVQLQESGGGSVQTGGSLRLSCTASTSIYSNNYMAWFSQSPGKGREGVAAVYMDDGRPYYADSVKGRFTISLDSAKNTMYLQMNSLKPEDTAMYYCAAAPGPLSRNYWYTSANYDYWGQGTQVTVSS
notes: pMECS-expressed; also called anti-PD-L1 nanobody No. 1; VHH numbered 1
fold difference (PD-L1 transient cells against PD-L2 transient cells) [1]: ≥ 550 times | OD ratio (experimental group (A405 nm)/control group (A405 nm)) [2]: > 20 | ELISA absorbance (A405 nm) [3]: 3.8 A405 nm | ELISA absorbance (A405 nm) [4]: 0.118 A405 nm | OD ratio (PD-L1/PD-L2) [5]: 32.2

B2: SEQ ID NO 11 (VHH)
VHH: QVQLQESGGGSVQAGETLRLSCTASGDTFDDSGVGWFRQVSGNECDLVSSINRDGTTYYAPSVAGRFTISQNNAKNTVYLQMNSLKPDDTAVYYCATVPAVGIVVRITCRGPFGYWGQGTQVTVSS
notes: pMECS-expressed; also called anti-PD-L1 nanobody No. 11; VHH numbered 11
OD ratio (experimental group (A405 nm)/control group (A405 nm)) [2]: > 20 | ELISA absorbance (A405 nm) [3]: 2.9 A405 nm | ELISA absorbance (A405 nm) [4]: 0.116 A405 nm | OD ratio (PD-L1/PD-L2) [5]: 25

B3: SEQ ID NO 12 (VHH)
VHH: QVQLQESGGGSVQAGGSLRLSCAASGYTRSSHCMVWFRQAPGKEREGVALIYTGSGSTYYADSVKGRFTISQDNAKKTLYLQMNSLKPEDTAMYYCAAGTSSSSCPGLLGPPRYYNWGQGTQVTVSS
notes: pMECS-expressed; also called anti-PD-L1 nanobody No. 12; VHH numbered 12
OD ratio (experimental group (A405 nm)/control group (A405 nm)) [2]: > 20 | ELISA absorbance (A405 nm) [3]: 2.99 A405 nm | ELISA absorbance (A405 nm) [4]: 0.125 A405 nm | OD ratio (PD-L1/PD-L2) [5]: 23.9

B4: SEQ ID NO 9 (VHH)
VHH: QVQLQESGGGSVQAGGSLRLSCAASGYTYSNDGMGWFRQIPGKEREGVAAISPTGRRTEYADSVQGRFTISRDNAKNMLSLQMNSLKPEDTGMYYCAREGSGSFSLQNSAVRSWGQGTQVTVSS
notes: pMECS-expressed; also called anti-PD-L1 nanobody No. 9; VHH numbered 9
OD ratio (experimental group (A405 nm)/control group (A405 nm)) [2]: > 20 | ELISA absorbance (A405 nm) [3]: 3.56 A405 nm | ELISA absorbance (A405 nm) [4]: 0.131 A405 nm | OD ratio (PD-L1/PD-L2) [5]: 27.2

B5: SEQ ID NO 2 (VHH)
VHH: QVQLQESGGGSVQAGGSLRLSCAVSRYSASNNVIKWMGWFRQAPGKEREGVAALYTSGGNTYYADSVKGRFTISRDYSENTVSLQMNNLKPEDTGMYYCATTVGTVLAGPLSARKYNYWGQGTQVTVSS
notes: pMECS-expressed; also called anti-PD-L1 nanobody No. 2; VHH numbered 2
OD ratio (experimental group (A405 nm)/control group (A405 nm)) [2]: > 20 | ELISA absorbance (A405 nm) [3]: 3.63 A405 nm | ELISA absorbance (A405 nm) [4]: 0.114 A405 nm | OD ratio (PD-L1/PD-L2) [5]: 31.8

B6: SEQ ID NO 142 (VHH)
VHH: QVQLQESGGGSVQTGGSLRLSCAVSRYSASNNVIKWMGWFRQAPGKEREGVAALYTSGGNTYYADSVKGRFTISRDYSENTVSLQMNNLKPEDTGMYYCAATVGTVLAGPLSARKYNYWGQGTQVTVSS
notes: pMECS-expressed; also called VHH numbered 142
binding result [6]: binds

B7: SEQ ID NO 139 (VHH)
VHH: QVQLQESGGGSVQAGGSLRLSCVASGYTNCRYDMSWYRQAPGKEREFVSSIDSEGVARHADSVKGRFGISQDNAKSTLYLQMNSLKPEDTAVYYCKTDYITCRFGSWSDSTWGQGTQVTVSS
notes: pMECS-expressed; also called VHH numbered 139
binding result [6]: binds

B8: SEQ ID NO 140 (VHH)
VHH: QVQLQESGGGSVQAGGSLRLSCVASGYTNCRYDMSWYRQAPGKEREFVSSIDSEGVARHADSVKGRFGISQDNAKSTLYLQMNSLKPEDTAMYYCKMDYIRCRFGSWSESTWGQGTQVTVSS
notes: pMECS-expressed; also called VHH numbered 140
binding result [6]: binds

B9: SEQ ID NO 141 (VHH)
VHH: QVQLQESGGGSVQAGGSLRLSCTAPGFTSNTCAMAWFRQAPGKEREFVSSMSTVGSTRFADSVKGRFTISKDEAKDTVYLQMNSLKPEDTAMYFCKTYACRECTGRYCRTAPDAWGQGTQVTVSS
notes: pMECS-expressed; also called VHH numbered 141
binding result [6]: binds

B10: SEQ ID NO 143 (VHH)
VHH: QVQLQESGGGSVQAGGSLRLSCTAPGFTSNTCAMAWYRQAPGKEREFVSSISTVRTTAYADSVKGRFTISKDEAKATVYLQMNSLKPEDTAMYFCKSYACRDCIGRYCRTAPDAWGQGTQVTVSS
notes: pMECS-expressed; also called VHH numbered 143
binding result [6]: binds

B11: SEQ ID NO 144 (VHH)
VHH: QVQLQESGGGSVQAGQSLRLSCTASGYTDSRYCMGWFRQAPGKERERVTTIHTGTGITYYADSVKGRFSISQDNAQNTMYLQMNSLEPEDTAMYYCATTDYVYSASASWCNGYGVFNNWGQGTQVTVSS
notes: pMECS-expressed; also called VHH numbered 144
binding result [6]: binds

B12: SEQ ID NO 147 (VHH)
VHH: QVQLQESGGGSVQAGGSLRLSCAASGYTSRPNFMVWFRQAPGKEREAVAGIYTVTGGTLYSDPVKGRFTISQDKAKNTVYLQMNSLNPEDTAMYYCAVKWYGGSWSDAATFRTWGRGTQVTVSS
notes: pMECS-expressed; also called VHH numbered 147
binding result [6]: binds

B13: SEQ ID NO 148 (VHH)
VHH: QVQLQESGGGSVQAGGSLRLSCAASGYSYNIDYMAWFRQAPGKEREGVAAIYTGSRRTYYSDSVKGRFAISQDNADNTVYLQMNALKPEDTAMYFCAALVSRPGRSWDKNEYRYWGQGTQVTVSS
notes: pMECS-expressed; also called VHH numbered 148
binding result [6]: binds

B14: SEQ ID NO 149 (VHH)
VHH: QVQLQESGGGLVQAGGSLRLSCTASGFTFDDYSMGWFRQAPGKEREGISCIDWSGGRTNYGDSVKGRFTISRDNAKNTLYLQMNSLKPEDTAMYYCAANSAYSSCSLSTTHYKYWGQGTQVTVSS
notes: pMECS-expressed; also called VHH numbered 149
binding result [6]: binds

B15: SEQ ID NO 150 (VHH)
VHH: QVQLQESGGGLVQPGGSLRLSCAASGFTFSAYGMSWVRQAPGKGFEWVSTINSGGGTTFYADSVKGRFTISRDNAKNTLYLQLNSLRTEDTAMYYCRRCADIYCSLSGGWTGQGTQVTVSS
notes: pMECS-expressed; also called VHH numbered 150
binding result [6]: binds

B16: SEQ ID NO 5 (VHH)
VHH: QVQLQESGGGSVQTGGSLRLSCAASTSIYSNNYMAWFSQAPGKGREGVAAVYIDDGRPYYADSVKGRFTISLDSAKNTVYLQMNGLKPEDTAMYYCAAAPGPLSRNYWYTSANYDYWGQGTQVTVSS
notes: pMECS-expressed; also called anti-PD-L1 nanobody No. 5; VHH numbered 5
OD ratio (experimental group (A405 nm)/control group (A405 nm)) [2]: > 20 | ELISA absorbance (A405 nm) [3]: 3.38 A405 nm | ELISA absorbance (A405 nm) [4]: 0.128 A405 nm | OD ratio (PD-L1/PD-L2) [5]: 26.4

B17: SEQ ID NO 8 (VHH)
VHH: QVQLQESGGDSVQAGGSLRLACKVPGFTSNTCAMAWFRQAPGKEREFVSSISTGGTTGYAESAKGRFTLSKDEAKDTVYLQMNSLKPEDTAMYFCKSYACRTCIGRYCRTAPDAWGQGTQVTVSS
notes: pMECS-expressed; also called anti-PD-L1 nanobody No. 8; VHH numbered 8
OD ratio (experimental group (A405 nm)/control group (A405 nm)) [2]: > 20 | ELISA absorbance (A405 nm) [3]: 3.37 A405 nm | ELISA absorbance (A405 nm) [4]: 0.133 A405 nm | OD ratio (PD-L1/PD-L2) [5]: 25.3
